# Assay results reported in patent US20210246209A1 (SHANGHAI JUNSHI BIOSCIENCES, published 2021).
# Where two headings read alike, the source gives them in different places.
# T1: hBTLA (human BTLA protein coated on plates or coupled to a chip) (human, UniProt Q7Z6A9 31-157, limits assumed)
# T1 sequence (looked up): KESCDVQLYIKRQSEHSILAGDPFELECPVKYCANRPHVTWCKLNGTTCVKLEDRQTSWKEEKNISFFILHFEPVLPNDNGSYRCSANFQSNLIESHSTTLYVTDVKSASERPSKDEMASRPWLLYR
# T2: recombinant protein of human BTLA extracellular domain (hBTLA-ECD-FC) (human, UniProt Q7Z6A9 31-157, biotin-labeled in the FACS blocking assays (site not stated))
# T2 construct: extracellular domain; also called BTLA-Fc; biotin-labeled hBTLA; not shown: Fc of the self-constructed HX1-FC expression plasmid
# T2 sequence (looked up): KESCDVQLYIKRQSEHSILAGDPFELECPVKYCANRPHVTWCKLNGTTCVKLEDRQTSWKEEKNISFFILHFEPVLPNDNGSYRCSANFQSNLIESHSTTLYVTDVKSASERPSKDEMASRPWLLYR
# Legend:
# [1] = molecular target: T1, hBTLA (human BTLA protein coated on …); assay: ELISA, hBTLA coated at 0.5 µg/mL, anti-human IgG4-HRP detection
# Experimental: (§1) The binding ability of the chimeric antibodies to hBTLA was assayed by ELISA. A 96-well microplate was coated with 0.5 μg/mL hBTLA and incubated at 37° C. for 60 minutes. The solution in wells was then discarded, and the wells were washed 3 times with washing buffer, and blocked for 60 minutes with PBS containing 2% BSA. After being washed 3 times with washing buffer, the wells were added with gradiently-diluted antibodies, incubated at 37° C. for 60 minutes, and washed 3 times with washing buffer before adding a HRP-labeled mouse anti-human IgG4 secondary antibody diluted at 1:10000. The mixture was incubated at 37° C. for 1 hour, washed three times with washing buffer, and added with 100 μL of TMB substrate solution for color development at room temperature for 30 minutes, then the reaction was stopped with 100 μL of 2M hydrochloric acid solution and the absorbance was read at 450 nm.
# The chimeric antibodies ch7, ch12, ch17, ch22 and ch27 can specifically bind to hBTLA.
# [2] = molecular target: T3, human BTLA expressed on cells (human, UniProt Q7Z6A9 31-289); assay: cell-based or functional assay
# [3] = molecular target: T3, human BTLA expressed on cells; assay: FACS on 293F cells expressing hBTLA
# Experimental: The humanized anti-BTLA antibodies were determined for their binding ability to hBTLA expressed on cells using cell-based flow cytometry (FACS). […] Then the cells were mixed with 50 μL of antibody diluent at different concentrations (initial concentration: 10 μg/mL, 3-fold titration), and incubated at room temperature for 30 minutes. After being washed with an FACS buffer twice, the cells were added with 100 μL of goat anti-human IgG-PE antibody, incubated for 30 minutes away from light, and assayed by FACS after two washes with an FACS buffer. The washed cells were resuspended in 4° C. buffer containing propidium iodide (PI) and 0.02% sodium azide that prevents receptor internalization and analyzed by flow cytometry. Viable cells were gated on the basis of PI positive cells being excluded from the FSC/SSC gate and their geometric mean fluorescence intensity was measured. The data were analyzed using a sigmoidal dose-response model within Prism™ software.
# The humanized antibodies hu17, hu18, and hu19 can effectively bind to hBTLA on 293 cells.
# [4] = molecular target: T2, recombinant protein of human BTLA …; assay: FACS, blocking of biotin-labeled hBTLA binding to hHVEM-293F cells
# Experimental: (§2) Then the cells were mixed with previously biotin-labeled hBTLA (1 μg/mL) protein, incubated at 4° C. for 15 minutes, followed by mixing with 50 μL of humanized antibody diluent (initial concentration: 5 μg/mL, 3-fold titration) at different concentrations, and incubating at room temperature for 30 minutes. After being washed with an FACS buffer twice, the cells were added with 100 μL of goat anti-human IgG-PE antibody, incubated for 30 minutes away from light, and assayed by FACS after two washes with an FACS buffer. The washed cells were resuspended in 4° C. buffer containing propidium iodide (PI) and 0.02% sodium azide that prevents receptor internalization and analyzed by flow cytometry. Viable cells were gated on the basis of PI positive cells being excluded from the FSC/SSC gate and their geometric mean fluorescence intensity was measured. The data were analyzed using a sigmoidal dose-response model within Prism™ software.
# The […] antibodies hu17, hu18, and hu19 can effectively block the binding of human BTLA to HVEM on the cell surface.
# [5] = molecular target: T2, recombinant protein of human BTLA …; assay: as above; remark: listed apart in the source
# Experimental: as §2, with “chimeric” for “humanized”, “intensity (MFI)” for “intensity”, “PrismTM” for “Prism™”
# The chimeric antibodies ch12, ch17, ch22 and ch27 can effectively block the binding of human BTLA to HVEM on the cell surface.
# [6] = molecular target: recombinant human FcγRIIIA (CD16a) V176 (human) (UniProt P08637); assay: SPR, Biacore T200, Fc receptor captured by anti-His antibody, antibody injected; IgG4 subtype (hu18), kinetics N/A
# recombinant human FcγRIIIA (CD16a) V176 (human), sequence (P08637 17-208 F176V limits assumed): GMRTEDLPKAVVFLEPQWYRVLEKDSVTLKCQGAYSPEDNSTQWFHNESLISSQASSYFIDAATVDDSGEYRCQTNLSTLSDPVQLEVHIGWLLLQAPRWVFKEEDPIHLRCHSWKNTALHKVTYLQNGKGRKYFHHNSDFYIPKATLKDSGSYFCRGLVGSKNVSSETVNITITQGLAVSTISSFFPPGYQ
# [7] = molecular target: T1, hBTLA (human BTLA protein coated on …); assay: ELISA, hBTLA coated at 0.5 µg/mL, anti-human IgG4-HRP detection; remark: listed apart in the source
# Experimental: as §1, with “specificity” for “ability”, “humanized” for “chimeric”, “determined” for “assayed”, “conventional ELISA method.” for “ELISA.”
# The humanized antibodies hu17, hu18, and hu19 can specifically bind to hBTLA.
# [8] = molecular target: recombinant human FcγRI (CD64) (human) (UniProt P12314); assay: SPR, Biacore T200, Fc receptor captured by anti-His antibody, antibody injected
# recombinant human FcγRI (CD64) (human), sequence (P12314 16-288 limits assumed): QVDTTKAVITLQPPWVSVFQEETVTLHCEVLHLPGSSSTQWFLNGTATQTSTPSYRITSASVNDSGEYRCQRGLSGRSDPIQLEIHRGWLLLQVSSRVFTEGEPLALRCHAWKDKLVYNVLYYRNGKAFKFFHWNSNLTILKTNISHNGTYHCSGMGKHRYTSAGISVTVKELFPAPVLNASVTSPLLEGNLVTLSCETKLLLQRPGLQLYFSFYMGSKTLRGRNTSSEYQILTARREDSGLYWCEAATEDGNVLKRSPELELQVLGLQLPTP
# [9] = molecular target: recombinant human FcRn (human) (UniProt P55899); assay: as above
# [10] = molecular target: recombinant human FcγRIIIA (CD16a) V176 (human) (UniProt P08637); assay: as above
# [11] = molecular target: T2, recombinant protein of human BTLA …; assay: SPR, Biacore T200, BTLA-Fc amine-coupled to chip, antibody as analyte, 1:1 fit
# Experimental: The assay was carried out using a Biacore T200 instrument (GE Healthcare). Series S CMS chip was loaded on the instrument and the system buffer used was HBS-EP+(10 mM HEPES, pH 7.4, 150 mM NaCl, 3 mM EDTA, 0.05% surfactant P20). The BTLA-Fc antigens were coupled in a chip detection channel: injecting a mixed solution of 400 mM EDC and 100 mM NHS at 10 μL/min for 420 s to activate the surface of the chip, diluting the BTLA-Fc antigens in a 10 mM sodium acetate/acetic acid (pH 5.5) buffer to a final concentration of 20 μg/mL and injecting at 10 μL/min for coupling, and injecting a 1M ethanolamine-hydrochloric acid solution (pH 8.5) at 10 μL/min for 420 s for blocking.
# Antibodies were diluted in a 2-fold gradient with Biacore system buffer for a total of 6 concentration points. Concentration gradients were 24 nM, 12 nM, 6 nM, 3 nM, 1.5 nM and 0.75 nM, with 24 nM being a replicate. Data were analyzed using Biacore T200 Evaluation Software (version no. 3.0, GE Healthcare). Data were fitted using a model of 1:1 Binding. The kinetic constants of the binding of the antibodies to the antigens, namely, the association rate constant ka (1/Ms), dissociation rate constant kd (1/s) and the affinity constant kd (M), were obtained by fitting, and the results are shown in Table 8.
Binder,EC50 [1] [µg/mL],"EC50 (luciferase reporter, T cell activation) [2] [µg/mL]",EC50 [3] [µg/mL],IC50 [4] [µg/mL],IC50 [5] [µg/mL],other results
"chimeric antibody ch12 (antibody, human IgG4, V domains shown, T0010 gives only CDR numbers (HCDR 13-15, LCDR 10-12)) VH: EVQLQQSGADLVKPGASVKLSCTASGFNFKHTYAHWVKQRPEQGLEWIGRIDPANGNTKYDPKFQGKATMTADTASNAAFLQLSSLTSEDTAVYYCVADHYGSSLLDYWGQGTSLTVSS VL: EVVMTQTPLTLSVTIGQSASISCKSSQSLLDSDGKTYLNWFLQRPGQSPKRLMHLVSKLDSGVPDRFTGSGSGTDFTLKISGVEAEDLGVYYCWQGTYFPYTFGGGTKLETK",0.0094,0.139,0.0881,0.157,0.0772,
"chimeric antibody ch17 (antibody, human IgG4, V domains shown, T0010 gives only CDR numbers (HCDR 19-21, LCDR 10-12)) VH: EVQLQQSGADLVKPGASVKLSCTASGFNIKDTYVHWVKQRPEQGLEWIGRIDPANGHTKFDPKFQGKATITADTSSNTANLQISSLTSEDTAVYYCVSDYYGSSLLDYWGQGTTLTVSS VL: EVVMTQTPLTLSVTIGQSASISCKSSQSLLDSDGKTYLNWFLQRPGQSPKRLMHLVSKLDSGVPDRFTGSGSGTDFTLKISGVEAEDLGVYYCWQGTYFPYTFGGGTKLETK",0.0298,,,,0.0761,
"chimeric antibody ch7 (antibody, human IgG4, V domains shown, T0010 gives only CDR numbers (HCDR 4-6, LCDR 10-12)) VH: EVQLQQSGAELVKPGASVKLSCTVSGFNIKDSYIHWVKQRPEQGLEWIGRIDPANGNTKYDPKFRGKATITADASSNTAALQVSSLTSEDTAVYFCVGDHYGSSLFDYWGHGTTLTVSS VL: EVVMTQTPLTLSVTIGQSASISCKSSQSLLDSDGKTYLNWFLQRPGQSPKRLMHLVSKLDSGVPDRFTGSGSGTDFTLKISGVEAEDLGVYYCWQGTYFPYTFGGGTKLETK",0.0066,,,,,

# The next lines start with results.
EC50 [1] [µg/mL],"EC50 (luciferase reporter, T cell activation) [2] [µg/mL]",EC50 [3] [µg/mL],IC50 [4] [µg/mL],IC50 [5] [µg/mL],Binder,other results
0.0052,,,,0.0695,"chimeric antibody ch27 (antibody, human IgG4, V domains shown, T0010 gives only CDR numbers (HCDR 28-30, LCDR 10-12)) VH: EVHLQQSGTELMKPGASVKLSCTASGLNIRDTYMHWVKQRPEQGLEWIGRIDPANGNTKFDPKFQGKATLTSDTSSNTAYLHFSSLTSEDAAVYYCVSDHYGSSLLDYWGQGTSLTVSS VL: EVVMTQTPLTLSVTIGQSASISCKSSQSLLDSDGKTYLNWFLQRPGQSPKRLMHLVSKLDSGVPDRFTGSGSGTDFTLKISGVEAEDLGVYYCWQGTYFPYTFGGGTKLETK",
0.0373,,,,0.0757,"chimeric antibody ch22 (antibody, human IgG4, V domains shown, T0010 gives only CDR numbers (HCDR 25-27, LCDR 10-12)) VH: EVQLQQSGAELVRPGASVKLSCTVSGFNIKDTYVHWVKQRPEQGLEWIGRIDPANGHTKYDPKLQGTATITADTSSNTAYLQLSSLTSEDTAVYYCATDYYGSSLLDYWGQGTTLTVSS VL: EVVMTQTPLTLSVTIGQSASISCKSSQSLLDSDGKTYLNWFLQRPGQSPKRLMHLVSKLDSGVPDRFTGSGSGTDFTLKISGVEAEDLGVYYCWQGTYFPYTFGGGTKLETK",
,0.277,0.0893,0.172,,"humanized antibody hu18 (antibody, IgG4, V domains shown, also called JS004; recombinant human anti-BTLA antibody) VH: QVQLVQSGAEVKKPGASVKLSCKASGYNFKHTYAHWVRQAPGQGLEWIGRIDPANGNTKYDPKFQGRATMTADTASNTAYLELSSLRSEDTAVYYCVADHYGSSLLDYWGQGTLVTVSS VL: DVVMTQTPLSLSVTPGQPASISCKSSQSLLDSDGKTYLNWFQQRPGQSPRRLIYLVSKLDSGVPDRFSGSGSGTDFTLKISRVEAEDVGVYYCWQGTYFPYTFGQGTKLEIK",Kd [6]: 60200 nM; EC50 [7]: 0.0054 µg/mL; Kd [8]: 18.4 nM; koff [8]: 0.00387 s⁻¹; kon [8]: 210000 M⁻¹ s⁻¹; Kd [9]: 138 nM; koff [9]: 0.0708 s⁻¹; kon [9]: 512000 M⁻¹ s⁻¹; fold weaker than the control antibody of the IgG1 subtype (hu18-IgG1) [10]: 400 fold; Kd [11]: 0.136 nM; koff [11]: 8.67e-05 s⁻¹; kon [11]: 639000 M⁻¹ s⁻¹
,0.29,0.0951,0.162,,"humanized antibody hu19 (antibody, V domains shown, It was detected with an anti-human IgG4 secondary antibody) VH: QVQLVQSGAEVKKPGASVKLSCKASGYNFKHTYAHWVRQAPGQGLEWIGRIDPANGNTKYDPKFQGRATMTADTASNTAYLELSSLRSEDTAVYYCVADHYGSSLLDYWGQGTLVTVSS VL: DIVMTQTPLSLSVTPGQPASISCKSSQSLLDSDGKTYLNWFQQRPGQSPRRLMHLVSKLDSGVPDRFSGSGSGTDFTLKISRVEAEDVGVYYCWQGTYFPYTFGQGTKLEIK",EC50 [7]: 0.0066 µg/mL
